Reference: publication doi:10.1101/2024.08.25.607996 (2024)
“And” between values parts separate entries of the source, which are not always exact repeats. Equal values may be shown once.

How the values were obtained:
[1] = biological target: T1, CCoV-HuPn-2018 S domain B (receptor-binding domain), residues 523-671, avi- and His-tagged (CCoV-HuPn-2018 (canine coronavirus)); assay: BLI
T1 chain: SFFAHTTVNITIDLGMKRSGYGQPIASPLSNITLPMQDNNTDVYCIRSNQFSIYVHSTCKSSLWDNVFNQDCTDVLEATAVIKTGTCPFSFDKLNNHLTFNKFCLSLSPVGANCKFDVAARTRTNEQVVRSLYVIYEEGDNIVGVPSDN

[2] = biological target: FCoV-23 S domain B (receptor-binding domain), residues 529-677, avi- and His-tagged (FCoV-23 (feline coronavirus)); assay: BLI

B1: feline APN-Fc ectodomain (dimeric) (Fc fusion)
chain: DQSKPWNVYRLPKTLIPDSYNVTLRPYLTPNNKGLYVFTGTNIVRFTCKESTNIVIIHSKRLNYTSHQGHMVALSGVGGFHPQPVIVRTELVELTEYLVVHLQEPLVAGRQYEMNSEFQGELADDLAGFYRSEYMENGVKKVLATTHMQATEARKSFPCFDEPAMKATFNITIIHPNNLVALSNMLPRGPSVPFGEDPTWKVTEFETTPIMSTYLLAYIVSEFSYVETRAPSGVLIRIWARPSAINQGHGDYALKVTGPILDFFSQHYDTPYPLNKSDQIALPDFNAGAMENWGLVTYRESALLYDRQSSSSGNQERVVTVIAHELAHQWFGNLVTLEWWNDLWLNEGFASYVEYLGADFAEPTWNLKDLMVLNDVYRVMAVDALASSHPLSTPASEINTPAQISEVFDSISYSKGASVLRMLSNFLTEDLFKMGIASYLHTYKYGNTIYLNLWEHLQQVVDKQPTIKLPDTVSAIMDRWILQMGFPVITVDTQTGTISQQHFLLDPQSVVTRPSQFNYLWIVPISSVRSGSPQAHYWLPGVEKAQNDLFKTTANDWVLLNLNVTGYYLVNYDNENWKKIQTQLQTDLSVIPVINRAQVIHDAFNLASAQKVPVTLALNNTLFLIQETEYMPWQAALSSLSYFKLMFDRSEVYGPMKRYLKKQVTPLFNHFERVTKNWTDHPQTLMDQYSEINAVSTACSYGVPECEKLAATLFAQWKKNPQNNPIHPNLRSTVYCNAIAQGGEEEWNFVWEQFLKAELVNEADKLRGALACSNQVWILNRFLSYTLDPNLIRKQDVTSTLSSISSNVVGQTLVWDFVQSNWKKLFQDYGTGSFSFSNLIQAVTRRFSTEFELQQLEQFKKNNMDTGFGSATRALEQALEKTKANLKWVKENKDVVLRWFTENS
For B1, the Kd [1] was 28 nM, the Kd [2] was 10 nM and the koff [2] was 0.0013 s⁻¹ and 0.0014 s⁻¹.

B2: canine APN-Fc ectodomain (dimeric) (Fc fusion)
chain: LAQSKPWNHYRLPKTLIPSSYNVTLRPYLTPNSNGLYTFKGSSTVRFTCKESTSMIIIHSKKLNYTNIQGQRVALRGVGGSQAPAIDRTELVEVTEYLVVHLREPLQVNSQYEMDSKFEGELADDLAGFYRSEYTENGVKKVLATTQMQAADARKSFPCFDEPAMKATFNITLIHPSNLVALSNMLPRGPSVPFTEEPNWNVTEFETTPIMSTYLLAYIVSEFKNVQENTPSNVLIRIWARPSAMDQGHGNYALRVTGPILDFFSRHYDTPYPLNKSDQIALPDFNAGAMENWGLVTYRESALLYDPQSSSIGNKERVVTVIAHELAHQWFGNLVTLEWWNDLWLNEGFASYVEYLGADYAEPTWNLKDLIVLNEVYRVMAVDALASSHPLSSPASEVNTPAQISEVFDSISYSKGASVLRMLSSFLTEDLFKKGVASYLHTFAYQNTIYLDLWNHLQWALGNQTAINLPYTVNAIMDRWILQMGFPVVTVDTTTGTLSQKHFLLDPQSNVTRPSKFNYLWIIPISSVKSGTQQAHYWMPDNAKVQNDLFKTTGDEWVLLNLNVTGYYLVNYDQNNWKKIHTQLQTDLSVIPVINRAQVIHDTFDLASAQIVPVTLALNSTLFLNQETEYMPWEAALSSLSYFKLMFDRSEVYGPMKNYLRKQVTPLFNHFEKITQNWTDHPQTLTEQYNEINAVSTACTYGVPKCKDLVSTLFAEWRKNPQNNPIYPNLRSTVYCNAIAQGGEEEWNFVWEQFRNTSLVNEADKLRSALACSTQVWILNRYLSYTLNPEFIRKQDVISTLSSIASNVIGQSLAWDFIQSNWKKLFEDYGTGSFSFSNLIQAVTRRFSTEFELQQLEQFKANNMDTGFGSGTRALEQALEKTKANIKWVKENKEAVLQWFRENSQ
B2 was tested, and the Kd [1] was 2.6 nM, the Kd [2] was 1.2 nM and the koff [2] was 0.00019 s⁻¹ and 0.00018 s⁻¹.
